Source: patent US20250019430A1 (published 2025)

T1: RETN-flag-His (human, UniProt Q9HD89 19-108)
T1 chain: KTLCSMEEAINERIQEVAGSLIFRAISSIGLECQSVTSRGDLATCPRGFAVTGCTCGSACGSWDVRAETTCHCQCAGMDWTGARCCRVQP


Biological target: RETN-His (#S0995)
Experiment: Octet BLI

Binder | Kd [nM]
5A2-LS-2H10 (antibody, V domains shown) VH: QVQLVQSGAEGRKPGSSVKVSCKVSGDTFSSYAISWVRQAPGQGLEWMGGIIPIFGAADYAQKFKGRVTISADESTSTAYMELSSLRSEDTAVYYCAKGPDYYGSFDPWGQGTLITVSS VL: NFMLTQPASVSGSPGQSITISCTGSSSDVGGYNYVTWYQQHPGKAPQLIIYDVTKRPSGVSNRFSGSKSGNSASLTISGLQAEDEADYYCSSYSSSTFYVFGTGTKVTVLR | 0.538
5A2-LS-1F11 (antibody, V domains shown) VH: QVQLVQSGAEGRKPGSSVKVSCKVSGDTFSSYAISWVRQAPGQGLEWMGGIIPIFGAADYAQKFKGRVTISADESTSTAYMELSSLRSEDTAVYYCAKGPDYYGSFDPWGQGTLITVSS VL: not shown | 0.958
5A2 (antibody, V domains shown) VH: QVQLVQSGAEGRKPGSSVKVSCKVSGDTFSSYAISWVRQAPGQGLEWMGGIIPIFGAADYAQKFKGRVTISADESTSTAYMELSSLRSEDTAVYYCAKGPDYYGSFDPWGQGTLITVSS VL: DIQMTQSPSFLSASVGDRVTITCRASQYIGTYLAWYQQQPGKAPKLLIYGASILQNGVPSRFSGSASGTEFTLTISSLQPEDFATYYCQQADSFPLTFGGGTKVDIKR | 1.17
5A2-LS-2D07 (antibody, V domains shown) VH: QVQLVQSGAEGRKPGSSVKVSCKVSGDTFSSYAISWVRQAPGQGLEWMGGIIPIFGAADYAQKFKGRVTISADESTSTAYMELSSLRSEDTAVYYCAKGPDYYGSFDPWGQGTLITVSS VL: QSALTQPASVSGSPGQSVTISCTGTSSDIGRYNRVSWYQHHPGKAPKLIIYDVSNRPSGVSNRFSGSKSGNTASLTISGLQAGDESDYYCSAYTRSSTWVFGGGTKLTVLR | 0.49

Second part, the binder after the results:

Kd [nM] | Binder
0.419 | 5A2-LS-2E10 (antibody, V domains shown) VH: QVQLVQSGAEGRKPGSSVKVSCKVSGDTFSSYAISWVRQAPGQGLEWMGGIIPIFGAADYAQKFKGRVTISADESTSTAYMELSSLRSEDTAVYYCAKGPDYYGSFDPWGQGTLITVSS VL: DIQMTQSPSSLSASVGDRVTITCRTSQTITNYLNWYQQKPGRAPKLLIFDASNLETGVPSRFSGSGSGTDFTLTISSLQPEDFATYFCQQSYNPGYTFGQGTKLEIKR
0.452 | 5A2-LS-2B02 (antibody, V domains shown) VH: QVQLVQSGAEGRKPGSSVKVSCKVSGDTFSSYAISWVRQAPGQGLEWMGGIIPIFGAADYAQKFKGRVTISADESTSTAYMELSSLRSEDTAVYYCAKGPDYYGSFDPWGQGTLITVSS VL: DIQMTQSPGTLSLSAGERATLSCRASQSVRGSYLAWYQQKPGQAPRLLIYGTSSRAPGIPDRFSGSGSGTDFTLTISSLEPEDFAVYYCQQRGDWLYTFGQGTKVEIKR
0.443 | 5A2-LS-2F11 (antibody, V domains shown) VH: QVQLVQSGAEGRKPGSSVKVSCKVSGDTFSSYAISWVRQAPGQGLEWMGGIIPIFGAADYAQKFKGRVTISADESTSTAYMELSSLRSEDTAVYYCAKGPDYYGSFDPWGQGTLITVSS VL: DIQMTQSPSSLSASVGDRVTITCRASQSIGTYLNWYQQKPGKAPKLLIYDASSLEDGVPSRFSGSGSGTDFTLTISSLQPEDSATYYCQQSYTMPLYTFGQGTKLEIKR
0.311 | 5A2-LS-2G03 (antibody, V domains shown) VH: QVQLVQSGAEGRKPGSSVKVSCKVSGDTFSSYAISWVRQAPGQGLEWMGGIIPIFGAADYAQKFKGRVTISADESTSTAYMELSSLRSEDTAVYYCAKGPDYYGSFDPWGQGTLITVSS VL: DIQMTQSPSSLSASVGDRVTITCQASQHVSSYLNWYQQKPGKAPKLLIYAASNLQSGVPSRFSGSGSGTDFTLTISSLQPDDFATYYCQQYDSYSSVYTFGPGTKLDIKR

Biological target: T1, RETN-flag-His
Experiment: Octet BLI

Kd [nM] | Binder
2.1 | RETN-5A2 (antibody, V domains shown) VH: QVQLVQSGAEGRKPGSSVKVSCKVSGDTFSSYAISWVRQAPGQGLEWMGGIIPIFGAADYAQKFKGRVTISADESTSTAYMELSSLRSEDTAVYYCAKGPDYYGSFDPWGQGTLITVSS VL: DIQMTQSPSFLSASVGDRVTITCRASQYIGTYLAWYQQQPGKAPKLLIYGASILQNGVPSRFSGSASGTEFTLTISSLQPEDFATYYCQQADSFPLTFGGGTKVDIKR

Biological target: RETN-C-His (#S0995)
Experiment: Octet BLI

Kd [nM] | Binder
2.14 | 5A2 (antibody, V domains shown) VH: QVQLVQSGAEGRKPGSSVKVSCKVSGDTFSSYAISWVRQAPGQGLEWMGGIIPIFGAADYAQKFKGRVTISADESTSTAYMELSSLRSEDTAVYYCAKGPDYYGSFDPWGQGTLITVSS VL: DIQMTQSPSFLSASVGDRVTITCRASQYIGTYLAWYQQQPGKAPKLLIYGASILQNGVPSRFSGSASGTEFTLTISSLQPEDFATYYCQQADSFPLTFGGGTKVDIKR
